Substrate: CC1=CC(=O)c2ccccc2C1=O
Assay: enzyme kinetics (KM) by BNAH fluorescence decrease; reference substrate
Type: biochemical, Homo sapiens
Conditions: FAD; pH 8.5; 37.0 °C

B1: human quinone reductase 2 (hQR2) (Homo sapiens) (protein)
chain: MAGKKVLIVYAHQEPKSFNGSLKNVAVDELSRQGCTVTVSDLYAMNLEPRATDKDITGTLSNPEVFNYGVETHEAYKQRSLASDITDEQKKVREADLVIFQFPLYWFSVPAILKGWMDRVLCQGFAFDIPGFYDSGLLQGKLALLSVTTGGTAEMYTKTGVNGDSRYFLWPLQHGTLHFCGFKVLAPQISFAPEIASEEERKGMVAAWSQRLQTIWKEEPIPCTAHWHFGQ
notes: 6his-hQR2
  Km: 10 ± 1 µM

From publication PMC6155775, “Role of Quinone Reductase 2 in the Antimalarial Properties of Indolone-Type Derivatives” (Molecules : A Journal of Synthetic Chemistry and Natural …, 2017)
